The DeepSol protein solubility set

Experiment: soluble on expression in E. coli; label from the status in PepcDB or PDB records

Sequence	soluble on expression in E. coli
GSHMTIQKVHGREVLDSRGNPTVEVEVTTEKGVFRSAVPSGASTGVYEACELRDGDKKRYVGKGCLQAVKNVNEVIGPALIGRDELKQEELDTLMLRLDGTPNKGKLGANAILGCSMAISKAAAAAKGVPLYRYLASLAGTKELRLPVPCFNVINGGKHAGNALPFQEFMIAPVKATSFSEALRMGSEVYHSLKGIIKKKYGQDAVNVGDEGGFAPPIKDINEPLPILMEAIEEAGHRGKFAICMDCAASETYDEKKQQYNLTFKSPEPTWVTAEQLRETYCKWAHDYPIVSIEDPYDQDDFAGFAGITEALKGKTQIVGDDLTVTNTERIKMAIEKKACNSLLLKINQIGTISEAIASSKLCMENGWSVMVSHRSGETEDTYIADLVVALGSGQIKTGAPCRGERTAKLNQLLRIEEELGAHAKFGFPGWS	soluble
GPGSMEGLSPPETDECAKPHNRECNTTPSSGSPPSNIPPQQLLCSVRSGMHSNLTESAWESRESNSGYAHEKQSGVDGDACTRYYQRLHRFYEQYNPKNLSRISEYLAAYKGKEEQLMAILVGKYGPEPVDRGPQTNLSCCSGDDSVMHFSGKRYRIPTVVTPQQGNTDCETPYWGNSPLIGERDILGLLSSLETANVELQKCYIGPSAQHPTSSWNGMTYVTRAEIFTPNEETFLGHKWTFTLGSKKVLVHEGSAYHRATFFCTDECQYRGRHERWRLCVYTSSVDSLYLVRVIWDPVVYLEPLPLDRSALSQHSSSEAMPIAGSSVSYQTSCGKGNTEPEQPLISATMINIMTMLENMDKKISGRFDALEARFSFLESKLLGAVDDKQRTEDR	not soluble
MLRRVNEQGPVQGRAQAPVKPDDSVPPELARARVWILTDGKAGDENQCIGIAEALGLAYETRRIPDGRPLTWMAPWGPIDPRDAPGRAGGLLQGPLPHLLIASGRRAVPYLRAVRRASDEKTFTAFLKDPRTGHDTADFIWVPDYDDLRGPNVFTTLTAPHPVSRARLDAARTTPDPRLARLPWPRIAVLIGGDSRHLRYRKADMQRLVRDLTKLAEGGCSLMLTVSRRTPPDLRKALEDLVKDKGGFFWDGSGENPYVGMLAIADHIVVTSDSANMVGEAASTGVPLLLFDLPRTYIRHRRMFAGLAMAGALKPFIGRLEALRYAPIDATPEIAAALAEGYQRHRARLAGEVAAVPRPAEPTSAPRGPFLEHHHHHH	not soluble
FSDIASLQRFIKLNQSDWLFEMLATERFTSYFQPIVSIKDTSQIFGYESLLRGLDEEGNLMLPTPIMELATEAGLIPQLDQIARLSAITEFSRYKVSGHIFINFAPTSLYDPAFCLSSSVEAIDTAEISHDRVVFEVVESDNPQDLTHLKAVLKYYRDAGFLVALDDLGSGYSSLNLLHQLRPDFIKLDMELIRDVHQDLYKASITEKLLEITQKLNIQTVAEGIECIEELNWLRERGANLAQGYLIAKP	not soluble
MSLRTVDEKKEQVEKLIQSLDEGVKNFTYNPGRFKALLEMQALMPKYTFRNIMLARIQLPEAQFIASFNRWKELGRNVKKGERSLRILAPRFKKVKDEITGEEETKLIGFLGVPVFDVSQTEGDPLPADRIKLTLDGESQEAVDIFEWVKELAKEDDCPVTIKHADGANGYYSITNHAIVVDSKLSINHRAKTGVHELVHSRVHRNINGTTATERECVAEGVAFIVCSYFGLDTSDYSFEYVNGWSKDGGESLMKYGDIMQKTANLLIEDFERVAEKSQAQAAGEGEKNDSPISAEGHHHHHH	soluble
EADYKQATALELATLVREKKVTSEELVKIALAITKRENPTLNAVITLREEAALTEAKALQDTGQPFLGVPLLLKGLGQSLKGESNTNGFGFLQDQVAGGTSTFVKALQNAGFIIIGQTNYPELGWKNISDSKLYGVSVNPWNPNHYSGGSSGGAGASVAAAFVPIASGSDAGGSIRIPASWTGTVGLKPSRGVIIGNSNSAKGQTVHFGLSRTVADTNALFETLLTKKDLPAGHLSQAQPIAYTTESPAGTPISAEAKEAVAEAVAFLKDQGYTLVEVKHPVDGERLMKNYYTVAAGSAGIADFMARQKLKRPLERNDVELLTWALFQTGKNITSEETTAAWTDIALQAQAMDEFYQQYPILLTPTTAATAPSIDNPLLKPEHAAQMEKIDQLSPAEQKQLIYDQWLTAFTYTPFTQQANLFGHPALSVPTYVSKEGLPLGIQFNSALNEDRTLLQLGALFENNHK	not soluble
MSLQRYFIELTKQQIEEAPTFSITGEEVHHIVNVMRMNEGDQIICCSQDGFEAKCELQSVSKDKVSCLVIEWTNENRELPIKVYIASGLPKGDKLEWIIQKGTELGAHAFIPFQAARSVVKLDDKKAKKKRERWTKIAKEAAEQSYRNEVPRVMDVHSFQQLLQRMQDFDKCVVAYEESSKQGEISAFSAIVSSLPKGSSLLIVFGPEGGLTEAEVERLTEQDGVTCGLGPRILRTETAPLYALSAISYQTELLRGDQEGGSHHHHHH	soluble
AFYINVVPDMVGGRLSSHDRDVLGLARQLAGAEGAVLAVVFGEHKETAFDSAGVDRLLLLDGNESDGYSPEQRVQGLRAVDNQFGPQRWVFPDSRTGGGELGRRFAASLGERPATRVWQVKGEHCTSRAGA	not soluble
MSLYDTILFPTDGSNAAESVLEYALQIASEHEATIHILNVADTGRDSVTTIRGEVIDVLETEGERIVAEATQYAKDEGVPVVSAVLQGDPHKTIVDYSQQSDSDCIVMPTHGQRGIQRILLGSVTERVINTAEVPVIAVNPDRDRPLVYPPQHVLVPTDGSRGADLALTEGIAVARATDATLHLLHVVETGGLGPDARSVLKEGELTERANEIMAGATEKIDDTSLDTVTSVIEHGDPSKVICDYIDENEVDLAVMGTHGQTDFSRYVMGGVSAKLVRKSPVPVTWVREPESEGHHHHHH	soluble
MNQILNKLQHIKPIEIIIVADDRMSAIQSIPTFVECNVVVIEEKNKWKAPVHGAKVANGDVVLFLDGEDVIFSVELERFIEPLLKKEQDVILNNIDSVCFEKMRVEWPSIAMVYRKIVNDVLGRMDLKYDSMLSMPYAITKKAIKDIGYDILQNPILSQVTLIEKGWPLHSSSAITNTSLNNITSNNTSFYKNELTKLEVCEIKENVKALESWLQRKDDRGNYTDGGRKREVIEQLKKQKNYSLFHKGWGMNSSIYNGKQLSIIIPAQNEEATIKEVILEARKIEPKEIIVVINGSTDQTEAIAKQLGATVIVYEEALGHDVGRAIGAQEATGDILLFIDADFAIPAKDLHPLTKAVVDGVDIALNDLNLNLRFPLYIVNLYKYMLNIACNRKDLGVGSTIAVPHAISRKCLEGIGWDTLHTSCVAQVKAILEGYKVECVHFVDVMKPNRIRPQEHFATIGHPPAVLRITGDHLEGLSYLLKHRDFKDLF	not soluble
MHHVYVIECSDGTYYTGYTTDVQRRVAEHNAGDGAKYTRGRTPVTLRHTESFDSKSEAMRREYRIKQLSRAQKEALFLEHHHHHH	soluble
MGSDKIHHHHHHMAEERVEPKPIDLGEYKFGFHDDVEPVLSTGKGLNEGVIRELSAAKGEPEWMLEFRLKSYETFKKMPMQTWGADLSEIDFDDLIYYQKPSDKPARSWDDVPEKIKETFERIGIPEAERAYLAGASAQYESEVVYHNMKEEFQKLGIIFTDTDSALKEYPDLFKQYFAKLVPPTDNKLAALNSAVWSGGTFIYVPKGVKVDIPLQTYFRINNENIGQFERTLIIVDEGASVYYVEGCTAPTYSSNSLHAAIVEIFALDGAYMRYTTIQNWSDNVYNLVTKRAKAQKDATVEWIDGNLGAKTTMKYPSVYLDGEGARGTMLSIAFANAGQHQDTGAKMIHNAPHTSSSIVSKSIAKGGGKVDYRGQVTFNKNSKKSVSHIECDTIIMDDLSASDTIPFNEIHNSQVALEHEAKVSKISEEQLYYLMSRGLSESEATEMIVMGFVEPFTKELPMEYAVELNRLISYEMEGSVG	not soluble
MMNYNTPKVSIVVPSLNSISYIRECIDSILNQTLKDIEILCIDANSTDGTLEVLKNYEKKDKRLRVIISDKKSYGYQMNLGIKEAKGEYLGIVESDDYIKTNMYERLYEIAKKNDCEVVKGDFYIFAYGKTEYVNVLRNSCEDIYNYKVNWNKDIRIFLGSDGINPIGIYRLDLLRTNQIKLNETPGASYQDNGLWFQIFALAKSIYFINEAFYMLRRDNPNSSVKSKEKVYCACEEYDFIRDFLKKHPDLEKTLAPICALHRFGNYMFTLERIDERYKLDFLKRFSQDFRKILKDKELDENLFGNINMQRINKIIENPVIYYYFSRGARARLQNQLVYRLGKVVVEAKSFNKIIKLPFLMLKICLEHNFEHKVYRSIVQFRPDLKLLPLECYLDYHEALVIKEHLSYKFGKLILLSFKGWYKGKIFILPFMLKKRYKEYKNKMILEHHHHHH	not soluble
